Data published in the supplement of paper PMC10201428.
± gives the standard deviation of the averaged measurements.

Assays:
[1] = system: VchCAST RNA-guided transposition machinery (E. coli BL21(DE3) host, lacZ target); test: relative integration efficiency (T-RL orientation) vs wild-type transposon end (log2 (normalized fold change)); transposon end mutated: left end; higher = more efficient transposition
How it was run: (§1)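 Pools of 1549 left-end or 1849 right-end barcoded transposon variants were cloned into a pUC57 mini-transposon donor and co-transformed into E. coli BL21(DE3) with a T7-driven effector plasmid carrying a CRISPR array, tniQ-cas8-cas7-cas6 and tnsA-tnsB-tnsC. Plating used 0.1 mM IPTG at 37°C for 18 h, and input plasmids and genomic integration junctions were PCR-amplified for Illumina sequencing, with two biological output replicates and four reference barcodes. Relative integration efficiency is the log-transformed fold change of output over input barcode abundance, normalised to the reference barcodes.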

[2] = system: VchCAST RNA-guided transposition machinery (E. coli BL21(DE3) host, lacZ target); test: relative integration efficiency (T-LR orientation) vs wild-type transposon end (log2 (normalized fold change)); transposon end mutated: left end; higher = more efficient transposition
How it was run: as §1

Sequence	relative integration efficiency (log2) [1]	relative integration efficiency (log2) [2]
AATGTTGTTGATGCAACCATAAAGTGATATTTAATAATTATTTATAATCAGCAACTTAACCACACAACCATATATTGATATCTCACAAAACAACCATAAGTTGATATTTTTGTGAATCGAGTATTTCAGCAAAACTACTGCAGTAAGAAAGT	-4.27 ± 1.1	-2.81 ± 1.1
AATGTTGTTGATGCAACCATAAAATGATAATTAATAATTATTTATAATCAGCAACTTAACCACAAAACAACCATAAAATGATAATTAACAAAAGTTGGTATTCAACTATAAAATGTGAATCGAGTATTTCAGCAAAACTACTGCAGTAAGAA	-2.57 ± 1.3	-1.23 ± 2.7
AATGTTGTTGATGCAACCATAAAGTGATATTTAATAATTATTTATAATCAGCAACTTAACCACAAAACAACCATATATTGATATCTCACAAACACCAACGCCTGGTCGCGGGGGTGTCCGATCTGATTTCAGCAAAACTACTGCAGTAAGAA	-2.54 ± 0.9	-0.664 ± 1.2
AATGTTGTTGATGCAACCATAAAGTGATATTTAATAACAACCATAAAGTGATATTTAACTTAACCACCAACCATATATTGATATCTCACAAAACAACCATAAGTTGATATTTTTGTGAATCGAGTATTTCAGCAAAACTACTGCAGTAAGAA	-4.66 ± 1.1	-3.39 ± 0.26
AATGTTGTTGATGCAACCATAAAGTGTATAAATATAATTATTTATAATCAGCAACTTAACCACAAAACAACCATATATTGTATAGAGACAAAACAACCATAAGTTGTATAAAATGTGAATCGAGTATTTCAGCAAAACTACTGCAGTAAGAA	-4.69 ± 1.2	-3.62 ± 1.7
AATGTTGTTGATGCAACCATATATTGATATCTCATAATTATTTATAATCAGCAACTTAACCACAAAACAACCATAAGTTGATATTTTACAAAAGTTGGTATTCAACTATAAAATGTGAATCGAGTATTTCAGCAAAACTACTGCAGTAAGAA	-3.58 ± 1.4	-1.84 ± 0.76
AATGTTGTTGATGCAACCATAAGTTGATATTTTATAATTATTTATAATCAGCAACTTAACCACAAAACAACCATAAAGTGATATTTAACAAAAGTTGGTATTCAACTATAAAATGTGAATCGAGTATTTCAGCAAAACTACTGCAGTAAGAA	-2.4 ± 0.96	-1.03 ± 1.1
AATGTTGTTGATGCAACCATAAAGTGATATTTAATAATTATTTATAATCAGCAACTCAACCATATATTGATATCTCACAAAACAACCATAAGTTGATATTTTTGTGAATCGAGTATTTCAGCAAAACTACTGCAGTAAGAAAGTTACTTCGT	-3.68 ± 1.1	-3.27 ± 0.88
AATGTTGTTGATGCAACCATAAAGTGATATTTAATAATTATTTATAATCAGCAACTTCAACCATATATTGATATCTCACAAAACAACCATAAGTTGATATTTTTGTGAATCGAGTATTTCAGCAAAACTACTGCAGTAAGAAAGTTACTTCG	-1.06 ± 0.45	-0.903 ± 0.24
AATGTTGTTGATGCAACCATAAAGTGATATTTAATAATTATTTATAATCAGCAACTTCAACCATATATTGATATCTCACAAAACAACCATAAGTTGATATTTTAACCACAAAATGTGAATCGAGTATTTCAGCAAAACTACTGCAGTAAGAA	-0.834 ± 0.54	-1.03 ± 0.79
AATGTTGTTGATGCAACCATAAAGTGATATTTAATAATTATTTATAATCAGCAACTTAACCACAAAACAACCATATATTGATATCTCACAAAACAACCATAAGTTGCGCGGGGGTGTCCGATCTGATTTCAGCAAAACTACTGCAGTAAGAA	-1.74 ± 0.81	-3.15 ± 1.6
AATGTTGTTGATGCAACCATAAAGTGATATTTACGAGCCGAGCTCGTGCCCGGTGCCGCGGCAGACGCAACCATATATTGATATCTCACAAAACAACCATAAGTTGATATTTTTGTGAATCGAGTATTTCAGCAAAACTACTGCAGTAAGAA	-2.33 ± 0.72	-2.47 ± 1.1
AATGTTGTTGATGCACCCATAAATTGATAATTAATAATTATTTATAATCAGCAACTTAACCACAAAACACCCATAAATTGATATTGCACAAAAGTTGGTATTCAACTATAAAATGTGAATCGAGTATTTCAGCAAAACTACTGCAGTAAGAA	-3.68 ± 1.4	-1.72 ± 0.67
AATGTTGTTGATGCAACCATAAAGTGATATTTAATAATTATTTATCAACCATATATTGATATCTCACAAAACAACCATAAGTTGATATTTTTGTGAATCGAGTATTTCAGCAAAACTACTGCAGTAAGAAAGTTACTTCGTGGTATGGGAGG	-6.15 ± 0.83	-3.55 ± 2.2
AATGTTGTTGATGCAACCATAAAGTGATATTTAATAATTATTTATAATCAGCAACTTAACCACAAAACAACCATATATTGATATCTCACAAAACAACCATAAGTTGATATTGGGTGTCCGATCTGATTTCAGCAAAACTACTGCAGTAAGAA	-0.13 ± 0.053	-0.651 ± 0.46
